Test results taken from the DeepSol protein solubility set.

assay: soluble on expression in E. coli; label from the status in PepcDB or PDB records

| Sequence | soluble on expression in E. coli |
| --- | --- |
| MAHHHHHHMEPFTWLPAERYFHPLLNSIGAYQRYTYSLRAVCDAQRQKLLPGGDIEQNPGPIAVLQMNVSCLTPSKLATLMAQGADIIAIQETWKSSEQIASMHTGDHVLHAQSRIGKGSGVAVLVRKTLRSKRVPLTIPQHDTSLEVVVVQVALDQNRDLIVASTYMRPPPQVTQSFRRLVNCLPASSPLLLCGDFNMHHPQWEPFLESSPSEVAAEFLELCTDAGLTLVNTPGDITYARGTRERSCIDLTWSKHLTVSDCSASVSPLSDHYMLTFTLHQAFMDTIPSAPPSAPRTFYS | not soluble |
| MAHHHHHHMEVAFTISPGERQHVEYLADLFAIILAIEKVEKATLRDIITQEQYSSTITRLLDKYKSTVTYLEQSRNPFYSTIDSFWENYGSRCPAARTRIQLSFDDAKQQQQQQQDSDVNGTVDPRLVLECGQHFITLMDSLKLQQTAVDQLYTLLADLVRGLQRLGVTDQSFFHRLTTWKEKFDTMNASDELSERDTREFAFVLECGYQAFHAYLSESSARRPKA | not soluble |
| MAHHHHHHMEVRRIAPIGRAAVLVMKNVSGNMWAGYSDGAIRVFDHVTQKVLRQSTQHTAAVYAMCAADGYVFTGGADGKVYQWMADDLHYSHMYYGHRNAVRSLTTYTDQKSRCRYVVSGSDDGTVKVWEATVAKTSGTPRKDGGCVSTLDGQGRCVLSILVLEDAAELWAGSEDSVIRVWDLSSMTVTTVITGHRAPVVTLLKVGDTVWSGSKDGAITITNRFSKDIVHQASQPPANRSAAPGGQRSSVSILPVTRTVVYEVWATAVDGSWQCWNFTVPEGVKSYVEEADVLKGGWCPSHSRPQRLSRVGQRSSRNVRSSSVNEYSENGLHSASARARRSDEKLRASVAQTRRTVAVLLAGSKVHQGLGAHNGNGFAHRNEAASVDIVDDDDTPLDIVAESIRNDHTAETQREVQLKQAALAKERRKSAKLRAALEMMCKDPVAIAEEGAKKVFRRTDSLVIAETLAMERQSGKLGSPTTEKLVGVSSQLELLKAQNKAMAAAVTESKKVPD | soluble |
| MAHHHHHHMFANLDEEKKARLRERILQAAAAPPPAATPARSNSDSDGEQEVPPQHTESTKHASEQLAINAQSTDIDIANIRLFTLDELDLNQLTECKTLSLRKNLIHELSAFPQHLAGRLVELDLFDNKIRKVRDFFDSAMVPDPESGSLSKKAVPHAFYSLTKLDLSYNQLRKITGLDSLGSTLKELYLVENKIKVIEGLDSFVHLELLELGGNRIREIGSGLSNLRSLQSLWLGKNKIHSIGDSLHNLRELRKLSLQANRLTSITAEAFKEGCNPYLAELYLSENGISTIENLPLHSLHLLDFSFNPISTINEAVINPTNMPELEEFWLTDGSISDWGEVKKFCGFANTLRTIYVERNPIEQDKRYRDKVYMNLPFVTQIDSWPVVNKDNLEGDRLIQRRAS | not soluble |
| MAHHHHHHMFKTMMFKTMRNYFMLNFKRNYRHYSRKKNINNINRKMNDPYSDLYKMNYYGNNFKRLPNKKTKSNEYELIRTSSNSFTYSSPYPPNINYTLKPYPDSAKEFYYENRKYVMKYKNVEYIPIKRMVCKGMSRRSNWDTYYLRVEK | not soluble |
| MAHHHHHHMFSRGAAATAMAKVSRLVSPRLRIIHRDYLTRRGGRTHQRCSAVAVDYTPTYFATYKSDPGQCPRLIDAEAVHGDEQAFWSARRDFYRGGASRSYYPAWDRQAQALIMLTREVPRIPQEAAFRLFTLGLKMMLLPRLVAGVELMLPSWVTMNAESVLNEGLEGKVAEADGDGKATGAAADAAALPSASSAGANEDSGSANAEKR | soluble |
| MAHHHHHHMFYTGINEPRPTAMNFSFDGLHFVSAHTDDAVRFIDVGNMTNTDVIICDAFGVHNVRYTHSSSVVCVAPRFHLDGHLHLLNTETSQFFGEMAYLNDAESEMLPVANTPVYSTLAQCPATDVIGAVVVAKGRLALFHPLISGCIAATPERSIVGSRACVQFSRDGHRIAIGDDHRIVLLDRRSFFGAPLAVLENKHVFTTSTSLTRCKGLEFSADANRLLLTSSSGEVVVYDWLRGETVANYFHGDARRHFVGSADAIGAQHVFPYQSASPILQLTSSMTGGRHLLVYAGCPSNSAASTRQGRLLYELQSKDSDVPVAIAVNPRLQLAATAARSITWWAFHNSVVEAYATLTEAGMTAAD | not soluble |
| MAHHHHHHMGACGSKGSTSDKGLASDKDGKNAKDRKEAWERIRQAIPREKTAEAKQRRIELFKKFDKNETGKLCYDEVHSGCLEVLKLDEFTPRVRDITKRAFDKARVLGSKLENKGSEDFVEFLEFRLMLCYIYDFFELTVMFDEIDASGNMLVDEEELKRAVPKLEAWGAKVEDPAALFKEIDKNGTGSVTFDEFAAWASAVKLDADGDPDNVPERA | soluble |
| MAHHHHHHMGCFNSTDAVADQDPASGYMYTKPNAKGTKEALFGGLLYRITDEEEGGLAFYNNSKDYEFHIKYLFGADSELNAVGDTKLEMQDDGILAEVVVYPLETKPFVQGTIDGYETKLEALPLSEEYFALHPEIDEAAYYRRLEAPKSSRF | soluble |
| MAHHHHHHMGCVNCKKAKRRKDHPTLEEAAARETERERWAAAEQGFAAQNLYTSVHAANSLPLTEREGATPLPATPGRLENVPQISAAAAAPGETENGRGWNSKKKSNSQATGKADNDSTAAALARVTRTAAPSESSRETPKGRRNKHQYRCHPGVSSWSDGSLPLSVDSVGSAKCPHSSSSSSSSSAQTYKSKKGAEDAKKHGSPGSITAAEIWPQENSDDSVAQGHLNSASHSQTATAWLHINGLTAAGTTSSTNARQTRQPKMYHRSSNVSSDSRSNATPPGMETKVYPSADALDDGPSDWGSTSHDVPAAIPAPNTSVESGGAAAEASSLPNRAPFEPYSDLGSRDVTDYLPPYEWAPRTLPVPSPLRACGPVDMAQWEDGENQFCGLAAAGTTARFQDPVVNVSAEGATTSNSAVAEGNYGASHPFALHTFYPRLPPAQWSSSSSDDTINGPEASAAAFDYPHLPVNAFIQKAHPHQQQPTYRAMYEGDASVRYSPAGYASHEATPRRAVPPSLVDVHVSEAVGYASPPLVNNAHSFYPSRALLPMHHSHAVPDSGSGKPMAYSHALPAMTTSAPQIYHDGNRNRSGNISIVSIGGGVHPHKPVSYLFDSSMDDWLQSRHAQPPQRQLYGESVDMW | soluble |
| MAHHHHHHMGGPREVTLKILDAIEAELKMSFKSIVEDRSLPYVSSSDTILVFGRSSLVEYILLSRSRDPQCKPKRVIVIDSAPLFEGRQLAEKLSSAGIDVTYGLITACCTLMPKCTRVFMGASAVLQNGDMFGRCGMALVAACAKLFRKPVLCFSESYKFVPEVWVGNLAQNTKLADMRPAAEVHGSDTGTHSPLVYPTPPTLSPPQLRASGGWGTPARGADFLTRSGGGGAVPFSSSASGYLYDLTPASYIDMIICEMGCLHTSAIVAAIKDREGRDTSQLLNLVRG | not soluble |
| MAHHHHHHMGKFVAEQYLRRGVSVTVLARDIAKAKSLFLPIADGQREQNRLASMGYRQLSSAAEKREMTASLHYRDFRRGDRHVLRYEFRNPRSVGGPSAGSANASCDQRFALELVEGDVGSTQDLEFSMRHASIVFYLTAALEEASGPALRADDRLRSSAAWWSLGSWFCGGRRFGGFLHALDACRRVDAHFVALTPLWVHGSCLSPFYWYRRLLTHPRGYCKAVQLQEQTLLSQSGSPGARCSLGADELEARQPGGDWGCWWRSRLSTEPPDDILIKSRSPVRFSLFRLSDVVFPSFNERIVASKNNRVDDDLHVTFIQQGDLDARLLANVLVKSIGLCNSVVESRIDIGGSLRGGTDMRDANAIFDLFEQLRNE | not soluble |
| MAHHHHHHMGRNNKMRSKPSDNVAWYDKGPVEWLPRPVRLTYDQLDQLRDWMMRETIAGRTEEFNKIRHLHREWSQHPLMPVLGDVEPKFPLNLYKQNHRAKRRFLVRWHKANSPTYWMWMPRGPAVATPLHRSSPSQFPEHWKSLARTSSSSSSSGSSSAAP | soluble |
| MAHHHHHHMGTLEAQTQGPGSMLNKVMLIGYLGDDPESKTMTSGAEVVNFRMATFESYMNKNTHQKVEKTEWHSVVVFNPHFAKIALQYLHKGSKVYIEGKLQTRKWQDKNGHDRYTTEIVLPQYKGELHLLDAKKEQSASSSSVTSQSYAIASGADDYGISAHDSMPF | soluble |
| MAHHHHHHMGTLEAQTQGPGSMNIDAISIGSNPPEDVNVIIEVPVGGQPIKYEMDKKAGALIVDRFLYTPMTYPGNYGFVPHTLSEDGDPIDVLVCNTRPLIPGCVINVRPIGVLVMEDNSGKDEKIIAVPSPHLTRRYEKIHDYTDMPEITLKQIAHFFEHYKDLEPGKWVKIGDWGDEDYARKFIVEAIERAKGK | soluble |
| MAHHHHHHMGTLKAIIAPSVLASNISKLAEETQRMESLGAEWIHLDVMDMHFVPNLSFGPPVINNLKKYTKSIFFDVHLMVEYPEKYVPLLKTSNQLTFHFEALNEDTERCIQLAKEIRDNNLWCGISIKPKTDVQKLVPILDTNLINTVLVMTVEPGFGGQSFMHDMMGKVSFLRKKYKNLNIQVDGGLNIETTEISASHGANIIVAGTSIFNAEDPKYVIDTMRVSVQKYLNN | soluble |
| MAHHHHHHMGTVSPARRVASPGKGKRSPSRGETPSEGRTRRAGSSPSSRPGMQTASQRAARKKEVRRLRDAELLLDEAPLSMVGERAQDALEAMLRALDIRRNASATPKKMQPVWHHVKALVVTANREGLRRAYAAFPAEEGHYFFGKALSTLEYSASTVNTAADGGEFAECPLLLSHLMEATLNNIAFQQYIAHEPPEAILKTLQRALKVQHHQAFRTLTLYNMAVAFLAARRYEDATEFVARCSQVAEVCLELEVSLTREISSLYKEYHTMVATHAIMCHHLLAGLAAWSGESDMEVYHAQLALCCATKFLCRG | not soluble |
| MAHHHHHHMGYMQEREEMSAMVDQRTAQLEALTSSVAEAQKKLQALDERMMALEPHGNVQATAPAGATATTSKRARAGASSVGGAWDAAGVASATKMPPEELKKKVEESIEHIFHLLRTGDQQLKLTAQNPNLRKSVDGAKVAGNASHGRSRAASLHRGPKALQSSTMQTGKMKAATGGSSYDSQRPSSGAHRSGKSTVGATTAAGAADAASQQQHHDASMGPVEMLTIIENKLEEYHRYLSDPANHVELALMKAVMKQSDKQRRRQARIIHLANQEDEQEERIRRALERSQAPIIHKIGKPFRPRSFVSKPIDEKSRRKAERAAAALNGSLDNIDSDEDGAEFFM | soluble |
| MAHHHHHHMIADDMGLGKTVQALAVAHHYRNEWPVLIVCPLSLVENWTKELMRFCSIPIGRIAIFQNSKVRVTDVHSAVIVPYSSLKSLDTQSTTFQVVILDESHYIKTVDSKRTVAALKLCRVARRVLLLSGTPTLSRPIELYPQLQTIMHPSWTPSKSLFAARYCNAFVGRFGVDYLGHSHMSELHVLLQQFVIRRTKRELGNELPSKIRQLLYVYITPKEKKALEKSVSALRNSFRDGATLPTLGDVASTTNMAQGTGGNLTTCTAGGVTATRNMTAFDLKIATARAKIAAVQDYVKSTTEQMVESGQKVIIFAHHQCMMEAIREAVESVQPKQPLDYIYITGETPAAQREALTTHFRTSTNCHVAVLSMHSCGVGHNLTCATMVVFAELDWNPSTHLQCEDRVHRMGQSSACVIKYLLAEGTSDSVIWPMLQTKLNVTHAVLEDSQAGGEGWSAGADTRRILRSDVPLTPSSPEKKQLTLEGFLSHSGSRPSRPLTQSSDSNAEVLKTSDESPRADTSPDTPFQSPSAVAPAENVLFDIAKLRQQREARKVFHSMPVLGTAGAGSSPVAAVTVTPPPPQIQRQVTLHEVLTNHPANSPTPKNSPQQRTNFHVAVAAKSFNERSGAAHTSSCSSETTVCAPIVSHPVKTLFLTRPASANSSSAASSVKPHAGASAADLSVFSTASKEGSICLAPSPRSEEIRRYNARRTPFILGSTLEKRLRPDDMEDQVS | not soluble |
| MAHHHHHHMIGKIFDNAFRIRTYNRFVCFLIGGTFAYSFSNPDMDTVYDLFPIFKQNKYAYLTFLEVNEKHSNVFEERLKDLCRFYQKQPGYLYTKIIKRIDNINDISKYIVISTWIKSENYLLACNRMYGQILINKIQNYAKYNSYLYRIVVDDSDYLPPI | not soluble |
